Laboratory results from patent publication US20240002543A1 (MARENGO THERAPEUTICS, published 2024).

What was measured:
cynomolgus CD3e [1] = target: T1, cynomolgus CD3e (cynomolgus, UniProt Q95LI5 22-117); test: SPR
T1 chain: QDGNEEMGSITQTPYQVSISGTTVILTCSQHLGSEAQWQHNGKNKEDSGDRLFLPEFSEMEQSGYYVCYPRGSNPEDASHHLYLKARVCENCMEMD

[2] = target: T2, Human CD3e (Acro Biosystems CDE-H5223) (human, UniProt P07766 23-126); test: SPR (Biacore T200), antibody captured via anti-human Fc, CD3e as analyte, 1:1 model
T2 construct: Analyte in SPR; also called huCD3e
Procedure: (§1) In this example, exemplary humanized anti-CD3 antibody molecules BKM0020, BKM0025, BKM0028, BKM0038 (as described herein) were tested for their binding affinity to human or cynomolgus CD3e using surface plasmon resonance (SPR). SPR measurements were performed by using the BIAcore T200. Each construct was immobilized on a CM5 chip via Anti-human Fc antibody to a response of 200 RU. Human CD3e (Acro Biosystems CDE-H5223) was diluted to 500 nM and then diluted two-fold. Each analyte concentration was injected at a flow rate of 20 μl/min over the surface on which each antibody was immobilized. The data was fit using a 1:1 binding model. Affinity to human CD3e was preserved compared to the parental and affinity to cyno CD3e was two to three-fold lower compared to the parental antibody.

cynomolgus CD3e [3] = target: T3, cynomolgus CD3e (cynomolgus, UniProt Q95LI5 22-117, limits assumed); test: as above
T3 construct: also called cCD3e; cyno CD3e
T3 sequence (looked up): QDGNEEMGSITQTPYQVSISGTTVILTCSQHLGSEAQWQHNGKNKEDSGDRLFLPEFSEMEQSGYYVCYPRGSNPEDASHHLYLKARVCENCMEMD
Procedure: as §1

[4] = target: T4, Human CD3e (Acro Biosystems CDE-H5223) (human, UniProt P07766 23-126); test: SPR
T4 chain: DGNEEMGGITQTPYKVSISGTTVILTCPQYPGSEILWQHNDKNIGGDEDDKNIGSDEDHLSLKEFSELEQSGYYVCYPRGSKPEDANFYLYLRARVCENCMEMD

[5] = target: T5, human CD3e on Jurkat cells (human, UniProt P07766 23-207); test: flow cytometry (FACS) on Jurkat cells, 3-fold dilutions from 10 ug/ml, anti-human IgG AF647
T5 construct: whole, on cells; also called huCD3e; CD3 expressed on Jurkat cells
Procedure: Binding of the exemplary humanized anti-CD3 antibodies to CD3-expressing Jurkat cells was performed using FACS. Antibodies were tested in a series of 3-fold dilutions starting with 10 ug/ml concentration and detected using anti-human IgG secondary antibodies conjugated to AF647.

Row | Binder | Kd (cynomolgus CD3e [1]) [nM] | binding result [2] | binding result (cynomolgus CD3e [3]) | Kd [4] [nM] | binding result [5]
1 | BKM0025 (humanized anti-CD3 antibody molecule) (antibody, V domains shown, Captured via anti-human Fc antibody in SPR; constant regions not tied) VH: QVQLVQSGAEVKKPGASVKVSCKASGYTFTTYWMHWVRQAPGQGLEWMGNFNPNNGDTNYNEKFKTRVTMTVDKSTSTAYMELRSLRSDDMAVYYCARDDYGRYYFDYWGQGTLVTVSS VL: EIVMTQSPATLSLSPGERATLSCKSSQSLLNSRTRKNYLAWYQQKPGLAPRLLIYWAFTRESGIPDRFSGSGSGTDFTLTISRLEPEDFAVYYCKQSFILRTFGGGTKVEIK | 18.3 | binds | binds | – | –
2 | BKM0020 (humanized anti-CD3 antibody molecule) (antibody, V domains shown, Captured via anti-human Fc antibody in SPR, so it carries a human Fc; constant regions not tied) VH: QVQLVQSGAEVKKPGASVKVSCKASGYTFTTYWMHWVRQAPGQGLEWMGNFNPNNGDTNYNEKFKTRVTMTVDKSTSTAYMELRSLRSDDMAVYYCARDDYGRYYFDYWGQGTLVTVSS VL: DIQMTQSPSTLSASVGDRVTITCKSSQSLLNSRTRKNYLAWYQQKPGKAPKLLIYWAFTRESGVPSRFSGSGSGTEFTLTISSLQPDDFATYYCKQSFILRTFGGGTKVEIK | 9.98 | binds | binds | 6.34 | binds
3 | BKM0028 (humanized anti-CD3 antibody molecule) (antibody, V domains shown, Captured via anti-human Fc antibody in SPR; constant regions not tied) VH: QVQLVQSGAEVKKPGASVKVSCKASGYTFTTYWMHWVRQAPGKGLEWMGNFNPNNGDTNYNEKFKTRVTMTVDKSTSTAYMELSSLRSEDTAVYYCARDDYGRYYFDYWGQGTLVTVSS VL: EIVMTQSPATLSLSPGERATLSCKSSQSLLNSRTRKNYLAWYQQKPGLAPRLLIYWAFTRESGIPDRFSGSGSGTDFTLTISRLEPEDFAVYYCKQSFILRTFGGGTKVEIK | 14.1 | binds | binds | 4.72 | –
4 | BKM0038 (humanized anti-CD3 antibody molecule) (antibody, V domains shown, Captured via anti-human Fc antibody in SPR; constant regions not tied) VH: QVQLVQSGAEVKKPGASVKVSCKASGYTFTTYWMHWVRQAPGKGLEWMGNFNPNNGDTNYNEKFKTRVTMTVDKSTSTAYMELSSLRSEDTAVYYCARDDYGRYYFDYWGQGTLVTVSS VL: DIQMTQSPSSLSASVGDRVTITCKSSQSLLNSRTRKNYLAWYQQKPGKAPKLLIYWAFTRESGVPSRFSGSGSGTDFTLTISSLQPEDFATYYCKQSFILRTFGGGTKVEIK | 14.1 | binds | binds | 6.47 | –
